Measurements published in IntAct's records for PubMed 17711851.

B1: Golgi resident protein GCP60 (Homo sapiens), Q9H3P7 (parent)
chain: MAAVLNAERLEVSVDGLTLSPDPEERPGAEGAPLLPPPLPPPSPPGSGRGPGASGEQPEPGEAAAGGAAEEARRLEQRWGFGLEELYGLALRFFKEKDGKAFHPTYEEKLKLVALHKQVLMGPYNPDTCPEVGFFDVLGNDRRREWAALGNMSKEDAMVEFVKLLNRCCHLFSTYVASHKIEKEEQEKKRKEEEERRRREEEERERLQKEEEKRRREEEERLRREEEERRRIEEERLRLEQQKQQIMAALNSQTAVQFQQYAAQQYPGNYEQQQILIRQLQEQHYQQYMQQLYQVQLAQQQAALQKQQEVVVAGSSLPTSSKVNATVPSNMMSVNGQAKTHTDSSEKELEPEAAEEALENGPKESLPVIAAPSMWTRPQIKDFKEKIQQDADSVITVGRGEVVTVRVPTHEEGSYLFWEFATDNYDIGFGVYFEWTDSPNTAVSVHVSESSDDDEEEEENIGCEEKAKKNANKPLLDEIVPVYRRDCHEEVYAGSHQYPGRGVYLLKFDNSYSLWRSKSVYYRVYYTR
partner: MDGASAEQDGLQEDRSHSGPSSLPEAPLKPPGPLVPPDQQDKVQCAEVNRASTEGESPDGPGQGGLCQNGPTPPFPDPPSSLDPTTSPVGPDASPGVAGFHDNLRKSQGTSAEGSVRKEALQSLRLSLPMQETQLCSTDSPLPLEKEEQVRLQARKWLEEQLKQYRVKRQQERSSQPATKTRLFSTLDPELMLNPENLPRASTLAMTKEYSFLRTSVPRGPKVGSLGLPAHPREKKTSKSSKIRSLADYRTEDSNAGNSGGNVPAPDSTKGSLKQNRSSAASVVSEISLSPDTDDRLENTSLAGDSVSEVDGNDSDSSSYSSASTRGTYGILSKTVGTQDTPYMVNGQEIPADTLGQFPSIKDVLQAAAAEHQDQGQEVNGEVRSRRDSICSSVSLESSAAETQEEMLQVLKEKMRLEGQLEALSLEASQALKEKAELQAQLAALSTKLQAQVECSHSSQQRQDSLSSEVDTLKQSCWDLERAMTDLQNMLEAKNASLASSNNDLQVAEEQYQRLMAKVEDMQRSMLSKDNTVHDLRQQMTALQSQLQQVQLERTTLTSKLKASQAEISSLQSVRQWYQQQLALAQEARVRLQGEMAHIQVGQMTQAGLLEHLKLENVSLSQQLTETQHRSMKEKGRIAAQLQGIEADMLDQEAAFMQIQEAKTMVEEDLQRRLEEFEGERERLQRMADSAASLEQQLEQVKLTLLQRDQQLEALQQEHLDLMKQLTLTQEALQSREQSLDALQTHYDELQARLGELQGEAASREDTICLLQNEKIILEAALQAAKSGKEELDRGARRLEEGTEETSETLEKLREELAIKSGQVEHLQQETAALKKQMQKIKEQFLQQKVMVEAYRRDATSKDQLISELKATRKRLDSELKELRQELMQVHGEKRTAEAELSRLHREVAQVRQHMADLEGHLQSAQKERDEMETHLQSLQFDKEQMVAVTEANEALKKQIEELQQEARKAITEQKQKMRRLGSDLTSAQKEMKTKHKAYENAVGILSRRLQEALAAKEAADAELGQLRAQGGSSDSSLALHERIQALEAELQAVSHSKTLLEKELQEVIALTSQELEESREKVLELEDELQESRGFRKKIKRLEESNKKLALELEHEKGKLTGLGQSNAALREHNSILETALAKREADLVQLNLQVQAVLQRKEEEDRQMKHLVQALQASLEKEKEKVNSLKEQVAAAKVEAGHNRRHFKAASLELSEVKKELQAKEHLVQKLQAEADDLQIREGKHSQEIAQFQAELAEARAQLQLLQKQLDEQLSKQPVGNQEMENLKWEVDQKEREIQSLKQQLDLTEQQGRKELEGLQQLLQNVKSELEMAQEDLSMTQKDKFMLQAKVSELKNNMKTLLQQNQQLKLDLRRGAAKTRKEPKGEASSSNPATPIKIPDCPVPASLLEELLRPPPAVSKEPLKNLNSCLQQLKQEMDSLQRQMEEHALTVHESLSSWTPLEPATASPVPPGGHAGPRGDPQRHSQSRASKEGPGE

Variants of: B1
Details: with goga3_human GOLGA3, Q08378
MAAVLNAERLEVSVDGLTLSPDPEERPGAEGAPLLPPPLPPPSPPGSGRGPGASGEQPEPGEAAAGGAAEEARRLEQRWGFGLEELYGLALRFFKEKDGKAFHPTYEEKLKLVALHKQVLMGPYNPDTCPEVGFFDVLGNDRRREWAALGNMSKEDAMVEFVKLLNRCCHLFSTYVASHKIEKEEQEKKRKEEEERRRREEEERERLQKEEEKRRREEEERLRREEEERRRIEEERLRLEQQKQQIMAALNSQTAVQFQQYAAQQYPGNYEQQQILIRQLQEQHYQQYMQQLYQVQLAQQQAALQKQQEVVVAGSSLPTSSKVNATVPSNMMSVNGQAKTHTDSSEKELEPEAAEEALENGPKESLPVIAAPSMWTRPQIKDFKEKIQQDADSVITVGRGEVVTVRVPTHEEGSYLFWEFATDNYDIGFGVYFEWTDSPNTAVSVHVSESSDDDEEEEENIGSEEKAKKNANKPLLDEIVPVYRRDCHEEVYAGSHQYPGRGVYLLKFDNSYSLWRSKSVYYRVYYTR [C463S] was tested, and the “effect of a mutation on the interaction” value was “disrupting interaction”.
